Assay results: patent US20050142634A1, “Novel modulator of non-genomic activity of nuclear receptors (mnar) and uses thereof” (Wyeth, priority 2001, published 2005)

B1: mutant 9: MNAR mutant, C-terminal portion aa 595-1131 (protein, listed as Homo sapiens)
chain: PPPLACALQAFSLGQREDSLEVSSFCSEALVTCAALTHPRVPPLQPMGPTCPTPAPVPPPEAPSPFRAPPFHPPGPMPSVGSMPSAGPMPSAGPMPSAGPVPSARPGPPTTANHLGLSVPGLVSVPPRLLPGPENHRAGSNEDPILAPSGTPPPTIPPDETFGGRVPRPAFVHYDKEEASDVEISLESDSDDSVVIVPEGLPPLPPPPPSGATPPPIAPTGPPTASPPVPAKEEPEELPAAPGPLPPPPPPPPPVPGPVTLPPPQLVPEGTPGGGGPPALEEDLTVININSSDEEEEEEEEGEEEEEEEEEEEEDFEEEEEDEEEYFEEEEEEEEEFEEEFEEEEGELEEEEEEEDEEEEEELEEVEDLEFGTAGGEVEEGAPPPPTLPPALPPPESPPKVQPEPEPEPGLLLEVEEPGTEEERGADTAPTLAPEALPSQGEVEREGESPAAGPPPQELVEEEPSAPPTLLEEEPEDGSDKVQPPPETPAEEEMETETEAEALQEKEQDDTAAMLADFIDCPPDDEKPPPPSEPDS
B2: mutant 10: MNAR mutant aa 595-962 (protein, listed as Homo sapiens)
chain: PPPLACALQAFSLGQREDSLEVSSFCSEALVTCAALTHPRVPPLQPMGPTCPTPAPVPPPEAPSPFRAPPFHPPGPMPSVGSMPSAGPMPSAGPMPSAGPVPSARPGPPTTANHLGLSVPGLVSVPPRLLPGPENHRAGSNEDPILAPSGTPPPTIPPDETFGGRVPRPAFVHYDKEEASDVEISLESDSDDSVVIVPEGLPPLPPPPPSGATPPPIAPTGPPTASPPVPAKEEPEELPAAPGPLPPPPPPPPPVPGPVTLPPPQLVPEGTPGGGGPPALEEDLTVININSSDEEEEEEEEGEEEEEEEEEEEEDFEEEEEDEEEYFEEEEEEEEEFEEEFEEEEGELEEEEEEEDEEEEEELEEVED
B3: mutant 11: MNAR mutant aa 595-887 (protein, listed as Homo sapiens)
chain: PPPLACALQAFSLGQREDSLEVSSFCSEALVTCAALTHPRVPPLQPMGPTCPTPAPVPPPEAPSPFRAPPFHPPGPMPSVGSMPSAGPMPSAGPMPSAGPVPSARPGPPTTANHLGLSVPGLVSVPPRLLPGPENHRAGSNEDPILAPSGTPPPTIPPDETFGGRVPRPAFVHYDKEEASDVEISLESDSDDSVVIVPEGLPPLPPPPPSGATPPPIAPTGPPTASPPVPAKEEPEELPAAPGPLPPPPPPPPPVPGPVTLPPPQLVPEGTPGGGGPPALEEDLTVININSSD

The molecules below were run on ER (assay: MNAR structural-functional analysis, ER-stimulated transcription in HepG2 cells). Settings: MNAR deletion mutants transfected into HepG2 cells.
Assay type: cell-based
Protocol: To delineate the regions of MNAR that are responsible for interaction with estrogen receptor and c-Src tyrosine kinase, we performed functional evaluation of MNAR deletion mutants (FIG. 12). A series of C-terminal truncations of MNAR was generated using specially designed oligonucleotides, by amplifying appropriate fragments and cloning them into appropriate expression vectors. These mutants were tested for their abilities to enhance ER-stimulated transcription when transfected into HepG2 cells.
At the C-terminus, MNAR contains a region rich in both proline and glutamic acid. To delineate the regions on MNAR responsible for interaction with estrogen receptors and c-src tyrosine kinase, a functional evaluation of MNAR deletion mutants was performed (FIG. 12). A series of C-terminal truncations of MNAR was generated using specially designed oligonucleotides, by amplifying appropriate fragments and cloning them into appropriate expression vectors. These mutants were tested for their abilities to enhance ER-stimulated transcription when transfected into HepG2 cells.

Molecule | ability to enhance ER-stimulated transcription
B1 | inactive
B2 | inactive
B3 | inactive
